Data: the nanobody polyreactivity screen of Harvey et al. (2022)

Experiment: yeast display, Sf9 membrane polyspecificity reagent, FACS + sequencing; frameworks hold sequencing errors
How it was run: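 Synthetic nanobody libraries on Saccharomyces cerevisiae BJ5465 were galactose-induced for 36–48 hours, stained 1 hour at 4 °C with 10% biotinylated, detergent-solubilized Sf9 membrane reagent and enriched on streptavidin microbeads. FACS then separated cells into low and high (top ~1%) gates by anti-HA (expression) and streptavidin (reagent binding) fluorescence. Genes were colony-PCR amplified, MiSeq 2 × 250 sequenced and CDR-length filtered. A clone's polyreactivity label is that of its gate of origin.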
For “QVQLVESGGGLVQAGGSLRLSCAASGSIIVYYGMGWYRQAPGKERELVAAISSGGSTHYADSVKGRFTISRDNAKNSVYLQMNSVKPEDTAVYYCAADRFFWLRSYPRYYYWGQGTQVTVSS”, the “polyreactivity (PSR sort gate)” value was “low polyreactivity”.
In the case of “QVQLVESGGGLVQAGGSLRLSCAASGSIIWLYAMGWYRQAPGKERELVAAISSGGSTYYADSVKGRFTISRDNAKNTVYLQMNSLKPEDTAVYYCAADYWSQSDWWDLTEYEYWGQGTQVTVSS”, the “polyreactivity (PSR sort gate)” value is reported as “high polyreactivity”.
With “QVQLVESGGGLVQAGGSLRLSCAASGSIIYTNAMGWYRQAPGKERELVAAITGTTTTNYADSVKGRFTISRDNAKNTVYLQMNSLKPEDPAVYYCNADYDRSRVYYSVELYDYWGQGTQVTVSS” the “polyreactivity (PSR sort gate)” value was “low polyreactivity”.
With “QVQLVESGGGLVQAGGSLRLSCAASGSILASNAMGWYRQAPGKDRELVAAITTSGGSTYYADSVKGRFTISRHNAKNTVYLQMNSLKPEDTAVYYCNAEYWLGRWLRYGYWGQGTQVTVSS” the “polyreactivity (PSR sort gate)” value was “high polyreactivity”.
With “QVQLVESGGGLVQAGGSLRLSCAASGSILCLNAMGWYRQAPGKERELVADITRGGSTYYADSVKGRFTISRDNAKNTVYLQMNSLKPEDTAVNYCAADAYTGQIPYYYFEHYYWGQGTQVTVSS” the “polyreactivity (PSR sort gate)” value was “high polyreactivity”.
With “QVQLVESGGGLVQAGGSLRLSCAASGSILCTNAMGWYRQAPGKERELVAAITTSGASTYYADSVKGRFTISRANAKNSVYLPMNSLKPEDSAVYYCAAPSRYRYYWGNYWGQGTQVTVSS” the “polyreactivity (PSR sort gate)” value was “high polyreactivity”.
With “QVQLVESGGGLVQAGGSLRLSCAASGSILDHYAMGRYRQAPGKEREFVAAISIRGGSTYYADSVKGRFTISRDNEKNTVYLHMNSLKPEDTAVYYCNALSNYVYRRNDYGGQGTQVTVSS” the “polyreactivity (PSR sort gate)” value was “low polyreactivity”.
With “QVQLVESGGGLVQAGGSLRLSCAASGSILDVYAMGWYRQAPGKERELVATISWSGGDTYYADSVKGRFTISRDNAKNTVYLQMNSLKPEDTAVYYCNDVFSYYGYDYWGQGTQVTVSS” the “polyreactivity (PSR sort gate)” value was “low polyreactivity”.
For “QVQLVESGGGLVQAGGSLRLSCAASGSILDWNAMGWYRQAPGKVRELDAAITNGVSTHYADSVKGRFTISRDNAKNTVYFQMNSLKPEETAVYYCAKAFWWRPEWWLRSARGSWGQGTQVTVSS”, the “polyreactivity (PSR sort gate)” value was “low polyreactivity”.
With “QVQLVESGGGLVQAGGSLRLSCAASGSILEPYAMGWYRQAPGKERELVAAISSSGGSTRYADSVKWRFTISRDNAKNTVYLQMNSLKPEDTAVYYCAARFRAKFNYWGQGTQVTVSS” the “polyreactivity (PSR sort gate)” value was “high polyreactivity”.
With “QVQLVESGGGLVQAGGSLRLSCAASGSILEVYAMGWYRQAPGKERELVAAISDGDSTYYADSVKGRFTISRDNAKNTVYLQMNSLKPEDTAVYYCAAEFVGTLWWYDYWGQGTQVTVSS” the “polyreactivity (PSR sort gate)” value was “low polyreactivity”.
For “QVQLVESGGGLVQAGGSLRLSCAASGSILFKNAMGWYRQAPGKERELVAAISTSGGRTYYADSVKGRFTISRDNAKNTVSLQMNSLKPEDTAVYYCAAVYPRQVSQVWRDDYWGQGTQVTVSS”, the “polyreactivity (PSR sort gate)” value was “high polyreactivity”.
For “QVQLVESGGGLVQAGGSLRLSCAASGSILGANVMGWYRQAPGKERELVASISKSGGNTFYADSVKGRFTISRDNAKNTVYLQMNSLKPEDTAVYYCAKDVLGGQITDGVGNDYWGQGTQVTVSS”, the “polyreactivity (PSR sort gate)” value was “low polyreactivity”.
For “QVQLVESGGGLVQAGGSLRLSCAASGSILGGNTMGGYRQAPGKERELVAAISRSGGSTYYADSVKGRLTISRDNAKNTVYLQMNSLKPEDTAVYYCNRKQAGHAQGYDYWGQGTQVTVSS”, the “polyreactivity (PSR sort gate)” value was “high polyreactivity”.
With “QVQLVESGGGLVQAGGSLRLSCAASGSILGHYAMGWYRQAPGKERELVAAISSSGGSTYYADSVKGRFTISRDNAKNTVYLQMNSLKPEDTAVYYCAADRGRPFPRGTGYYYWGQGTQVTVSS” the “polyreactivity (PSR sort gate)” value was “high polyreactivity”.
With “QVQLVESGGGLVQAGGSLRLSCAASGSILGHYAMGWYRQAPGTERELVAAISRGGSTTYYADSVKGRFTISRDNAKNTVYFQMNSLKPEDTAVYYCAARSASKMDYWGQGTQVNVSS” the “polyreactivity (PSR sort gate)” value was “high polyreactivity”.
With “QVQLVESGGGLVQAGGSLRLSCAASGSILGINVMGWYRPAPGKERELVAAISRRGGSTYYADSVKGRFTISRDNAKNTVYLQMNSLKPEDTAVYYCAATRTARTMGYWGQGTQVTVSS” the “polyreactivity (PSR sort gate)” value was “high polyreactivity”.
In the case of “QVQLVESGGGLVQAGGSLRLSCAASGSILGPYAMGWYRQAPGKERELVAAISQSGARTYYADSVKGRFTISRDNAKNTVYLQMNSLKPEDTAVYYCAAQSRKGGWSAYYYWGQGTQVTVSS”, the “polyreactivity (PSR sort gate)” value is reported as “high polyreactivity”.
For “QVQLVESGGGLVQAGGSLRLSCAASGSILGQNGMGWYRQAPWKERELVAGITWSGGSTYYADSVKGRFTISRDNAKNTVYLQMNSLKPEDTAVYYCARRGYYAPYYYWGQGTQVTVSS”, the “polyreactivity (PSR sort gate)” value was “high polyreactivity”.
In the case of “QVQLVESGGGLVQAGGSLRLSCAASGSILGQYTMGWYRQAPGKERELVAGISSGGSTNYADSVKGRFTISRDNAKNTVYLQMNSLKPEDTAVYYCNKDGAFHWVGSDPVYLFEYWGQGTQVTVSS”, the “polyreactivity (PSR sort gate)” value is reported as “low polyreactivity”.
With “QVQLVESGGGLVQAGGSLRLSCAASGSILGSNVMGWYRQAPGKERELVAAITSGDSTNYADSVKGRFTISRDNAKNTVYLQMNSLKPEDTAVYYCAKPYSVAPAAVLNWYLGYEYWGQGTQVTVSS” the “polyreactivity (PSR sort gate)” value was “low polyreactivity”.
In the case of “QVQLVESGGGLVQAGGSLRLSCAASGSILGYYAMGWYRQEPGKERELVAAISGRGGSTYYADSVKGRFTISRDNAKNSVYLHMNSLKPEDTAVYYCAVVWGSYYWGQGGGEYWGQGTQVTVSS”, the “polyreactivity (PSR sort gate)” value is reported as “high polyreactivity”.
With “QVQLVESGGGLVQAGGSLRLSCAASGSILHLYAMGWYRQAPGKERELVARINSGGTTNYADSVKGRFTISRDNAKNTVYLQMNSLKPEDTAVYYCAARFTPYITSDVGHYDYWGQGTQVTVSS” the “polyreactivity (PSR sort gate)” value was “low polyreactivity”.
With “QVQLVESGGGLVQAGGSLRLSCAASGSILKFNAMGWNRQAPGKERELVAAITRGTNTYYADSVKGRFTISRDNAKNTVYLQMNTLKPEDTAVYYCAARLPYNAIGYYYWGQGTQVTVSS” the “polyreactivity (PSR sort gate)” value was “low polyreactivity”.
In the case of “QVQLVESGGGLVQAGGSLRLSCAASGSILKFNAMGWYRQAPGKERELVAAITRGTNTYYADSVKGRFTISRDNANNTFFLQMNSLKPEDTAVYYCAARLPYNAIGYYYWGQGTQVTVSS”, the “polyreactivity (PSR sort gate)” value is reported as “low polyreactivity”.
With “QVQLVESGGGLVQAGGSLRLSCAASGSILLRNAMGWYRQAPGKERELVAAISRDGGSTYADSVKGRFTISRDNAKNTVYLQMNSLKPEDTAVYYCAKRSYWYDYWGQGTQVTVSS” the “polyreactivity (PSR sort gate)” value was “high polyreactivity”.
For “QVQLVESGGGLVQAGGSLRLSCAASGSILLRYAMGWYRQAPGKERELVAAISYDGGGTYYADSVKGRFTISRDNAKNTVYLQMNSLKPEDTAVYYCAADGYSSSGTAYDYWGQGTQVTVSS”, the “polyreactivity (PSR sort gate)” value was “low polyreactivity”.
With “QVQLVESGGGLVQAGGSLRLSCAASGSILLYYVMGWYRQAPGKERELVAGISSSGRTYYADSVKGRFTISRDNAKNTVYLQMNSLKPEDTAVYYSAKKYWRGDVRVGYWGQGTQVTVSS” the “polyreactivity (PSR sort gate)” value was “high polyreactivity”.
With “QVQLVESGGGLVQAGGSLRLSCAASGSILPGNAMGWYRQAPGKEREFVAAISKSGGRTNYADSVKGRFTISRDNAKNTVYLQMNSLKPEDTAVYYCAARRSTGYGKSNLYNYWGQGTQVTVSS” the “polyreactivity (PSR sort gate)” value was “high polyreactivity”.
With “QVQLVESGGGLVQAGGSLRLSCAASGSILPYYAMGWYRQAQGKERELLATITDGTDTYYADSVKGRFTISRDNAKNTVYLPMNSLKPEDTAVYYCNADGYVYYLHEDYWGQGTQVTVSS” the “polyreactivity (PSR sort gate)” value was “low polyreactivity”.
With “QVQLVESGGGLVQAGGSLRLSCAASGSILQHYAMGWYRQAPGKERELVASISWTGGSTYYADSVKGRFTISRDNAKNTVYLQMNSLKPEDTAVYYCAARRYRYYSRGSWGQGTQVTVSS” the “polyreactivity (PSR sort gate)” value was “high polyreactivity”.
